# Data: the supplement of paper PMC9112550, “Optimization of the antimicrobial peptide Bac7 by deep mutational scanning” (BMC Biology, 2022)
# Tested on: Escherichia coli TOP10
# Test: shrunken log2 fold change of peptide-encoding DNA abundance (4.5 h post-induction vs induction); higher = less antimicrobial activity (less host growth inhibition)
# Conditions: time post-induction: 4.5 h; library: site-saturation at positions 5, 18, 19, 20
# 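Also: peptides expressed intracellularly from a pBAD plasmid library in pooled LB shake-flask culture, induced with 0.3% L-arabinose, DNA abundance read by NGS, three biological replicates, DESeq2 with apeglm shrinkage.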
row,Sequence,shrunken log2 fold change
1,RRIRERPPRLPRPRPRPPIDPRP,0.0361
2,RRIRKRPPRLPRPRPRPSGSPRP,-0.0809
3,RRIRVRPPRLPRPRPRPLSAPRP,-0.0281
4,RRIRIRPPRLPRPRPRPNWMPRP,-0.341
5,RRIRIRPPRLPRPRPRPRCHPRP,-0.466
6,RRIRGRPPRLPRPRPRPHDDPRP,0.0376
7,RRIRLRPPRLPRPRPRPTENPRP,-0.171
8,RRIRRRPPRLPRPRPRPFAEPRP,0.61
9,RRIRYRPPRLPRPRPRPPCPPRP,-0.141
10,RRIRRRPPRLPRPRPRPAVSPRP,-0.136
11,RRIRGRPPRLPRPRPRPIISPRP,0.507
12,RRIRTRPPRLPRPRPRPLLQPRP,0.173
13,RRIRERPPRLPRPRPRPEYQPRP,0.00497
14,RRIRSRPPRLPRPRPRPVCTPRP,-0.0518
15,RRIRDRPPRLPRPRPRPHDAPRP,0.0126
16,RRIRGRPPRLPRPRPRPHIEPRP,1.15
17,RRIRQRPPRLPRPRPRPWQMPRP,-0.0417
18,RRIRWRPPRLPRPRPRPTMGPRP,0.272
19,RRIRYRPPRLPRPRPRPSVEPRP,-0.481
20,RRIRFRPPRLPRPRPRPTNHPRP,-0.536
21,RRIRPRPPRLPRPRPRPIPAPRP,0.342
22,RRIRDRPPRLPRPRPRPLCDPRP,0.287

row,Sequence,shrunken log2 fold change
1,RRIRERPPRLPRPRPRPLANPRP,-0.225
2,RRIRCRPPRLPRPRPRPSNKPRP,-0.44
3,RRIRGRPPRLPRPRPRPIPRPRP,0.519
4,RRIRKRPPRLPRPRPRPLICPRP,0.123
5,RRIRWRPPRLPRPRPRPMQYPRP,0.0439
6,RRIRGRPPRLPRPRPRPILMPRP,-0.05
7,RRIRQRPPRLPRPRPRPICGPRP,-0.0167
8,RRIRRRPPRLPRPRPRPDVYPRP,-0.0445
9,RRIRYRPPRLPRPRPRPPMRPRP,0.317
10,RRIRQRPPRLPRPRPRPPGFPRP,0.0259
11,RRIRQRPPRLPRPRPRPKLFPRP,-0.0707
12,RRIRERPPRLPRPRPRPCYLPRP,-1.07
13,RRIRNRPPRLPRPRPRPFRWPRP,0.0512
14,RRIRSRPPRLPRPRPRPPVPPRP,0.378
15,RRIRLRPPRLPRPRPRPINCPRP,-0.0463
16,RRIRNRPPRLPRPRPRPWDRPRP,-0.0515
17,RRIRERPPRLPRPRPRPHQVPRP,-0.0847
18,RRIRKRPPRLPRPRPRPEPHPRP,0.829
19,RRIRARPPRLPRPRPRPWTDPRP,-0.0701
20,RRIRARPPRLPRPRPRPMGCPRP,0.495
21,RRIRWRPPRLPRPRPRPGGCPRP,0.732
22,RRIRCRPPRLPRPRPRPYDCPRP,-0.451

row,Sequence,shrunken log2 fold change
1,RRIRLRPPRLPRPRPRPMDCPRP,-0.0117
2,RRIRHRPPRLPRPRPRPFGNPRP,-0.119
3,RRIRQRPPRLPRPRPRPTYFPRP,-0.0458
4,RRIRGRPPRLPRPRPRPWEAPRP,-0.0319
5,RRIRCRPPRLPRPRPRPIVFPRP,-0.31
6,RRIRHRPPRLPRPRPRPQKEPRP,-0.03
7,RRIRNRPPRLPRPRPRPCIFPRP,-0.697
8,RRIRWRPPRLPRPRPRPFMMPRP,-0.587
9,RRIRVRPPRLPRPRPRPHREPRP,-0.223
10,RRIRERPPRLPRPRPRPYYQPRP,0.0241
11,RRIRHRPPRLPRPRPRPCLTPRP,-0.0273
12,RRIRARPPRLPRPRPRPDYTPRP,-0.312
13,RRIRLRPPRLPRPRPRPGQMPRP,0.482
14,RRIRWRPPRLPRPRPRPGKWPRP,0.202
15,RRIRQRPPRLPRPRPRPVWDPRP,-0.104
16,RRIRARPPRLPRPRPRPMAWPRP,0.662
17,RRIRARPPRLPRPRPRPKYMPRP,-0.477
18,RRIRSRPPRLPRPRPRPVSDPRP,0.32
19,RRIRERPPRLPRPRPRPLPWPRP,0.0953
20,RRIRRRPPRLPRPRPRPPTDPRP,0.709
21,RRIRIRPPRLPRPRPRPPTMPRP,-0.0339
22,RRIRARPPRLPRPRPRPMDNPRP,-0.114

row,Sequence,shrunken log2 fold change
1,RRIRFRPPRLPRPRPRPQLIPRP,-0.313
2,RRIRHRPPRLPRPRPRPALNPRP,0.0444
3,RRIRSRPPRLPRPRPRPHFCPRP,-0.29
4,RRIRYRPPRLPRPRPRPHIQPRP,-1.03
5,RRIRFRPPRLPRPRPRPLWTPRP,-0.0265
6,RRIRHRPPRLPRPRPRPDKHPRP,-0.25
7,RRIRFRPPRLPRPRPRPCYKPRP,-0.228
8,RRIRERPPRLPRPRPRPLNYPRP,-0.176
9,RRIRHRPPRLPRPRPRPPRHPRP,0.231
10,RRIRSRPPRLPRPRPRPHLYPRP,-0.02
11,RRIRDRPPRLPRPRPRPLEKPRP,0.0929
12,RRIRWRPPRLPRPRPRPTAYPRP,0.0204
13,RRIRKRPPRLPRPRPRPQDAPRP,0.027
14,RRIRFRPPRLPRPRPRPYSFPRP,-0.967
15,RRIRKRPPRLPRPRPRPIHQPRP,-0.0102
16,RRIRCRPPRLPRPRPRPKHHPRP,-0.32
17,RRIRTRPPRLPRPRPRPHLYPRP,-0.154
18,RRIRCRPPRLPRPRPRPCFWPRP,0.216
19,RRIRGRPPRLPRPRPRPIYCPRP,0.112
20,RRIRYRPPRLPRPRPRPCIQPRP,-0.172
21,RRIRLRPPRLPRPRPRPATGPRP,0.13
22,RRIRARPPRLPRPRPRPFAKPRP,0.349

row,Sequence,shrunken log2 fold change
1,RRIRMRPPRLPRPRPRPIGRPRP,-0.00776
2,RRIRDRPPRLPRPRPRPWGHPRP,0.0208
3,RRIRARPPRLPRPRPRPPWQPRP,0.675
4,RRIRKRPPRLPRPRPRPYIKPRP,-0.28
5,RRIRPRPPRLPRPRPRPWWTPRP,-0.311
6,RRIRARPPRLPRPRPRPEFPPRP,0.962
7,RRIRLRPPRLPRPRPRPDGNPRP,-0.0479
8,RRIRNRPPRLPRPRPRPEGFPRP,0.0136
9,RRIRFRPPRLPRPRPRPRQIPRP,0.0287
10,RRIRYRPPRLPRPRPRPEMQPRP,0.057
11,RRIRIRPPRLPRPRPRPCERPRP,-0.0509
12,RRIRARPPRLPRPRPRPMNRPRP,-0.107
13,RRIRRRPPRLPRPRPRPKISPRP,0.14
14,RRIRYRPPRLPRPRPRPGLNPRP,-0.489
15,RRIRTRPPRLPRPRPRPSFWPRP,0.277
16,RRIRCRPPRLPRPRPRPSHIPRP,-0.637
17,RRIRTRPPRLPRPRPRPDADPRP,0.0357
18,RRIRLRPPRLPRPRPRPWRFPRP,0.271
19,RRIRTRPPRLPRPRPRPPVQPRP,0.0423
20,RRIRVRPPRLPRPRPRPFDVPRP,-0.0208
21,RRIRTRPPRLPRPRPRPECQPRP,0.0443
